T1: human TIGIT-Fc (human, UniProt Q495A1 22-141, limits assumed)
T1 construct: not shown: Fc; not described
T1 sequence (looked up): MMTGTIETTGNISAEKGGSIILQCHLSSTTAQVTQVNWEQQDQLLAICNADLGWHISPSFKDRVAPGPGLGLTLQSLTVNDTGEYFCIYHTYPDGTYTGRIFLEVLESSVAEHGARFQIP

T2: TIGIT (UniProt Q495A1 22-141, limits assumed)
T2 construct: also called T cell immunoreceptor with Ig and ITIM domains; hTIGIT
T2 sequence (looked up): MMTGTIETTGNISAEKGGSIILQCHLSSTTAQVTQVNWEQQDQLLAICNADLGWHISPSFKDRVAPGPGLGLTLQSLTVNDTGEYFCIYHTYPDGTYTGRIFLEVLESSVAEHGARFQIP


Key:
human TIGIT-Fc [1] = target: T1, human TIGIT-Fc; test: CD155 competition ELISA, single point; note: test concentration or dose not given here
Protocol: (§1) TIGIT/CD155 inhibition of VHH-Fcs were assessed using an ELISA assay (Table 10B). Briefly, human TIGIT-Fc was coated on a plate & then incubated with VHH-Fcs and human CD155-biotin. Bound CD155-biotin was detected using a streptavidin-HRP conjugate visualized with TMB. Strong inhibitors from the single point screen were titrated to determine EC50 (Table 10C).

TIGIT = target: T2, TIGIT; test: SPR, VHH-V5-His
human TIGIT-Fc [2] = target: T1, human TIGIT-Fc; test: CD155 competition ELISA, titration
Protocol: as §1

OD (450 nm) (human TIGIT-Fc [1]) [OD]	Kd (TIGIT) [nM]	RU (TIGIT) [RU]	koff (TIGIT) [s⁻¹]	kon (TIGIT) [M⁻¹ s⁻¹]	EC50 (human TIGIT-Fc [2]) [nM]	Binder
0.487	–	–	–	–	–	TIGIT-SC192 (Fc fusion, VHH-Fc) VHH: EVQLVESGGGLVQPGGSLRLSCAASGFTFSVYWMGWFRQAPGKEREFVAAISRSGTLKEYADSVKGRFTISADNSKNTAYLQMNSLKPEDTAVYYCARGSGWPKIHFDYWGQGTLVTVSS
0.503	–	–	–	–	–	TIGIT-SC199 (Fc fusion, VHH-Fc) VHH: EVQLVESGGGLVQPGGSLRLSCAASGFSSAQYAMGWFRQAPGKERELVASIDSEGRTNYADSVKGRFTISADNSKNTAYLQMNSLKPEDTAVYYCTRDGGFDPWGQGTLVTVSS
0.441	–	–	–	–	–	TIGIT-SC205 (Fc fusion, VHH-Fc) VHH: EVQLVESGGGLVQPGGSLRLSCAASGFTFDRSWMGWFRQAPGKEREFVAAIWRSGTLKAYADSVKGRFTISADNGKNTAYLQMNSLKPEDTAVYYCAEGGTTAWGWFVPWGQGTLVTVSS
0.517	–	–	–	–	–	TIGIT-SC206 (Fc fusion, VHH-Fc) VHH: EVQLVESGGGLVQPGGSLRLSCAASGFLFDSYVMGWFRQAPGKEREFVAAIWRSGTLKAYADSVKGRFTISADNSKNTAYLQMNGLKPEDTAVYYCAGVGTDYGDYLFNYWGQGTLVTVSS
0.828	–	–	–	–	–	TIGIT-SC214 (Fc fusion, VHH-Fc) VHH: EVQLVESGGGLVQPGGSLRLSCAASGFTFGDSWMGWFRQAPGKEHEFVAAIWRSGTLKAYADSVKGRFTISADNSKNTAYLQMNSLKPEDTAVYYCTSYDAVAGTRDFWGQGTLVTVSS
0.607	–	–	–	–	6.52	TIGIT-SC68 (Fc fusion, VHH-Fc) VHH: EVQLVESGGGLVQPGGSLRLSCAASGHTFRGYAMGWFRQAPGKEREAVAAISWSGDNTYYADSVKGRFTISADNSKNTAYLQMNSLKPEDTAVYYCGDYEGHWGQGTLVTVSS
0.111	–	–	–	–	1.37	TIGIT-SC46 (Fc fusion, VHH-Fc) VHH: EVQLVESGGGLVQPGGSLRLSCAASGRTFSNYVMGWFRQAPGKERELVASISSFGSTYYADSVKGRFTISADNSKNTAYLQMNSLKPEDTAVYYCARSGGFLSDWGQGTLVTVSS
0.587	–	–	–	–	–	TIGIT-SC213 (Fc fusion, VHH-Fc) VHH: EVQLVESGGGLVQPGGSLRLSCAASGTFQRINAMGWFRQAPGKEREFVAAIWRSGTLKAYADSVKGRFTISADNSKNTAYLQMNSLKPEDTAVYYCARWVGASGDYWIDYWGQGTLVTVSS
0.0807	–	–	–	–	1.53	TIGIT-SC57 (Fc fusion, VHH-Fc) VHH: EVQLVESGGGLVQPGGSLRLSCAASGNTFSGGFMGWFRQAPGKEREWVASVLRGGYTWYADSVKGRFTISADNSKNTAYLQMNSLKPEDTAVYYCTTYRGWGQGTLVTVSS
0.449	–	–	–	–	–	TIGIT-SC204 (Fc fusion, VHH-Fc) VHH: EVQLVESGGGLVQPGGSLRLSCAASGFLFNSYWMVWFRQAPGKEREFVAAIWRSGTLKAYADSVKGRFTISADNSKNTAYLQMNSLKPEDTAVYYCAADVNYGSTWRNWGQGTLVTVSS
0.504	–	–	–	–	–	TIGIT-SC207 (Fc fusion, VHH-Fc) VHH: EVQLVESGGGLVQPGGSLRLSCAASGFAFSSYVMGWFRQAPGKEREFVAAIWRSGTLKAYADSVKGRFTISADNSKNTEYLQMNSLKPEDTAVYYCARDDYGDTRRYFQHWGQGTLVTVSS
0.56	–	–	–	–	–	TIGIT-SC209 (Fc fusion, VHH-Fc) VHH: EVQLVESGGGLVQPGGSLRLSCAASGFLFNSYWMGWFRQAPGKEREFVAAIWRSGTLKAYADSVKGRFTISADNSKNTEYLQMNSLKPEDTAVYYCARDDYGDYRIYFQHWGQGTLVTVSS

Continued, binder first:

Binder	OD (450 nm) (human TIGIT-Fc [1]) [OD]	Kd (TIGIT) [nM]	RU (TIGIT) [RU]	koff (TIGIT) [s⁻¹]	kon (TIGIT) [M⁻¹ s⁻¹]	EC50 (human TIGIT-Fc [2]) [nM]
TIGIT-30-54 (VHH-V5-His) (VHH, not shown: V5-His tag) VHH: EVQLVESGGGLVQAGGSLRLSCAASGFTFRSFGMGWFRQAPGKEREFVASTIWSRGDTYYADSVKGRFTISADNAKNTVYLQMNSLKPEDTAVYYCASSPYGPLYRSTHYYDWGQGTQVTVSS	–	1090	130	0.04	30000	–
TIGIT-SC38 (Fc fusion, VHH-Fc) VHH: EVQLVESGGGLVQPGGSLRLSCAASGFTFSEYPMGWFRQAPGKEREFVAVVNWNGDSTYYADSVKGRFTISADNSKNTAYLQMNSLKPEDTAVYYCARGSDWYRYWGQGTLVTVSS	0.143	–	–	–	–	0.181
TIGIT-30-58 (VHH-V5-His) (VHH, not shown: V5-His tag) VHH: EVQLVESGGGLVQAGGSLRLSCAASGFAFGDSWMGWFRQAPGKEREWVSGISSGGGRTYYADSVKGRFTISADNAKNTVYLQMNSLKPEDTAVYYCAADVWYGSTWRNWGQGTQVTVSS	–	1060	120	0.01	10000	–
TIGIT-31-06 (VHH-V5-His) (VHH, also called TIGIT-31-6; 31-6; not shown: V5-His tag) VHH: EVQLVESGGGLVQPGGSLRLSCAASGFTFSTSWMGWFRQAPGKERELVASITSGGSTYYADSVKGRFTISADNSKNTAYLQMNSLKPEDTAVYYCAADVWYGSTWRNWGQGTLVTVSS	–	145	107	0.003	20000	–
TIGIT-31-32 (VHH-V5-His) (VHH, not shown: V5-His tag) VHH: EVQLVESGGGLVQPGGSLRLSCAASGFTFSTSWMGWFRQAPGKERELVAAMTSGGGTNYADSVKGRFTISADNSKNTAYLQMNSLKPEDTAVYYCAADVWYGSTWRNWGQGTLVTVSS	–	102	145	0.006	60000	–
TIGIT-31-47 (VHH-V5-His) (VHH, not shown: V5-His tag) VHH: EVQLVESGGGLVQPGGSLRLSCAASGFTFSGNWMGWFRQAPGKEREWVVGISSGGTPHYADSVKGRFTISADNSKNTAYLQMNSLKPEDTAVYYCAADVWYGSTWRNWGQGTLVTVSS	–	186	119	0.004	20000	–
TIGIT-31-20 (VHH-V5-His) (VHH, not shown: V5-His tag) VHH: EVQLVESGGGLVQPGGSLRLSCAASGFTFSGNWMGWFRQAPGKEREFVAGILSDGRELYADSVKGRFTISADNSKNTAYLQMNSLKPEDTAVYYCAADVWYGSTWRNWGQGTLVTVSS	–	281	45	0.004	10000	–
TIGIT-31-01 (VHH-V5-His) (VHH, also called TIGIT-31-1; 31-1; not shown: V5-His tag) VHH: EVQLVESGGGLVQPGGSLRLSCAASGFTFDRSWMGWFRQAPGKEREVVASITSGGSTYYADSVKGRFTISADNSKNTAYLQMNSLKPEDTAVYYCAADVWYGSTWRNWGQGTLVTVSS	–	169	122	0.004	20000	–
TIGIT-31-35 (VHH-V5-His) (VHH, not shown: V5-His tag) VHH: EVQLVESGGGLVQPGGSLRLSCAASGFTFSTSWMGWFRQAPGKERELVASITSGGTTNYADSVKGRFTISADNSKNTAYLQMNSLKPEDTAVYYCAADVWYGSTWRNWGQGTLVTVSS	–	346	78	0.01	30000	–
TIGIT-31-26 (VHH-V5-His) (VHH, not shown: V5-His tag) VHH: EVQLVESGGGLVQPGGSLRLSCAASGFTFDRSWMGWFRQAPGKERELVAAITSGGSTYYADSVKGRFTISADNSKNTAYLQMNSLKPEDTAVYYCAADVWYGSTWRNWGQGTLVTVSS	–	158	59	0.003	20000	–
TIGIT-31-08 (VHH-V5-His) (VHH, also called TIGIT-31-8; 31-8; not shown: V5-His tag) VHH: EVQLVESGGGLVQPGGSLRLSCAASGFTFSTSWMGWFRQAPGKERELVAARNSGGNTNYADSVKGRFTISADNSKNTAYLQMNSLKPEDTAVYYCAADVWYGSTWRNWGQGTLVTVSS	–	210	178	0.009	40000	–
TIGIT-31-56 (VHH-V5-His) (VHH, not shown: V5-His tag) VHH: EVQLVESGGGLVQPGGSLRLSCAASGRIFRRNSMGWFRQAPGKEREFVAVITRSGGGEVTTYADSVKGRFTINADNSKNTAYLQMNSLKPEDTAVYYCAMSSVTRGSSDWGQGTLVTVST	–	382	301	0.01	30000	–
TIGIT-SC51 (Fc fusion, VHH-Fc) VHH: EVQLVESGGGLVQPGGSLRLSCAASGRTEANYAMGWFRQAPGKEREFVAAISWDGGATAYADSVKGRFTISADNSKNTAYLQMNSLKPEDTAVYYCGDYEGHWGQGTLVTVSS	0.129	–	–	–	–	3.47
TIGIT-SC36 (Fc fusion, VHH-Fc) VHH: EVQLVESGGGLVQPGGSLRLSCAASGNTFNFNVMGWFRQAPGKEREAVASIWRSGGNTYYADSVKGRFTISADNSKNTAYLQMNSLKPEDTAVYYCARDLEWRPYYMDVWGQGTLVTVSS	0.144	–	–	–	–	2.08
TIGIT-SC31 (Fc fusion, VHH-Fc) VHH: EVQLVESGGGLVQPGGSLRLSCAASGRAFESYAMGWFRQAPGKERELVATIGWSGTDYADSVKGRFTISADNSKNTAYLQMNSLKPEDTAVYYCAKGYTSGLSDWGQGTLVTVSS	0.125	–	–	–	–	1.78
TIGIT-SC208 (Fc fusion, VHH-Fc) VHH: EVQLVESGGGLVQPGGSLRLSCAASGFLFDSYVMGWFRQAPGKEREFVAAIWRSGTLKAYADSVKGRFTISADNSKNTEYLQMNSLKPEDTAVYYCARDDYGDTRRYFQHWGQGTLVTVSS	0.544	–	–	–	–	–
TIGIT-31-34 (VHH-V5-His) (VHH, not shown: V5-His tag) VHH: EVQLVESGGGLVQPGGSLRLSCAASGRSRYGMGWFRQAPGKEREFVSAISWSGISTYYADSVKGRFTISADNSKNTAYLQMNSLKPEDTAVYYCAATQWGSSGWKQARWYDWGQGTLVTVSS	–	473000	25300	0.2	400	–
